Reference: patent US20030170222A1

Target: Melanocortin MC5 (human recombinant, HEK-293 cells) (human), P33032
Sequence (P33032 whole entry): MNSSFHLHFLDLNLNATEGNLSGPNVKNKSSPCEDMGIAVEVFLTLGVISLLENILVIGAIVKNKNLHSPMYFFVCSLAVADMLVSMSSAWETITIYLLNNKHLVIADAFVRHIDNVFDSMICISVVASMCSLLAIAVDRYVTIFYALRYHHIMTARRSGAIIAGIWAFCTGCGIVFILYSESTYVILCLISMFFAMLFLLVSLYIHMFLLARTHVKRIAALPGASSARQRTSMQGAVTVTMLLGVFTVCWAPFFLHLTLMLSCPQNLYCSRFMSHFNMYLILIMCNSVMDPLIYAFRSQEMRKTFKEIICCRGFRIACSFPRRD

Binder: SLWCVCPFRVCPPCH (modifications not checked) [β-Ge14.1-D1]
- % Inh.: 71%
- IC50: 294 nM
- Ki: 276 nM
